Data from publication PMC5489123 (Journal of molecular biology, 2010).
One block for each molecule: values may come before it. Ends that are not written are not given here. * marks the point of attachment. Dansyl = CN(C)c1cccc2c(S(=O)(=O)*)cccc12

Key:
Tiam1 PDZ domain [1] = target: T1, Tiam1 PDZ domain (Homo sapiens, UniProt Q13009); experiment: NMR chemical shift titration of N-acetylated peptides; type: binding; conditions: Kd (Model)/Kd (peptide); both Kd by NMR titration
Tiam1 PDZ domain [2] = target: T1, Tiam1 PDZ domain; experiment: Fluorescence anisotropy binding assay of dansylated peptides
[3] = target: T2, Tiam1 PDZ domain (residues 841-930) (human, UniProt Q13009 841-930); experiment: fluorescence polarisation
T2 sequence (Q13009 841-930): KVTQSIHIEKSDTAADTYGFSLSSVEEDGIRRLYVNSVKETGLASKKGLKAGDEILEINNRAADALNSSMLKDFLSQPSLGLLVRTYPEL

[4] = target: T2, Tiam1 PDZ domain (residues 841-930); experiment: fluorescence polarisation; remark: listed apart in the source
[5] = target: T2, Tiam1 PDZ domain (residues 841-930); experiment: NMR titration

T1 sequence (Q13009 841-930): as above

Molecule: Ac-NKDKEYYV [Neurexin1]
- Fold versus Model (Tiam1 PDZ domain [1]): 0.05
- Kd (Tiam1 PDZ domain [2]): > 100 µM

Molecule: Ac-SSRKEYYA [Model Tiam1-binding peptide, N-terminally acetylated (Ac-SSRKEYYA)]
- Kd [5]: 112 ± 15 µM

Molecule: Dansyl-SSRKEYYA [Model Tiam1-binding peptide, N-terminally dansylated]
- Kd [4]: > 100 µM

Molecule: Dansyl-ENQKEYFA [Caspr4(F→A) peptide, dansylated (dan-ENQKEYFA)]
- Kd [3]: 64.8 ± 5.9 µM

Molecule: Dansyl-ENQKEYFF [Caspr4 C-terminal peptide (residues 1301-1308), N-terminally dansylated (dan-ENQKEYFF)]
- Kd [3]: 16.8 ± 5.4 µM

Now from value to molecule:

- Kd [3]: 26.9 ± 0.9 µM
Molecule: Dansyl-TKQEEFYA [Syndecan1 C-terminal peptide (residues 303-310), N-terminally dansylated (dan-TKQEEFYA)]

- Kd [4]: > 100 µM
Molecule: NKDKEYYV-OH (not fully specified (N-terminus)) [Neurexin-1 C-terminal peptide (residues 1470-1477), N-terminally dansylated]

- Kd [3]: 55.7 ± 3.6 µM
Molecule: Dansyl-TKQEEFYF [Syndecan1(A→F) peptide, dansylated (dan-TKQEEFYF)]

- Kd [5]: 2400 ± 250 µM
Molecule: Ac-NKDKEYYV [Neurexin-1 C-terminal peptide (residues 1470-1477), N-terminally acetylated (Ac-NKDKEYYV)]
